The values below are quoted from earlier work in PMC3897602 (PLoS ONE, 2014).

For the data set the following is noted: in vivo, po.

On to “biotinylation of exendin-4: biotinylated exendin-4 reported by Jin et al”, for which the apparent bioavailability is on record as 3.95%.
